The values that follow come from patent publication US20050074865.

Chain of Enterokinase (P98072 2-800): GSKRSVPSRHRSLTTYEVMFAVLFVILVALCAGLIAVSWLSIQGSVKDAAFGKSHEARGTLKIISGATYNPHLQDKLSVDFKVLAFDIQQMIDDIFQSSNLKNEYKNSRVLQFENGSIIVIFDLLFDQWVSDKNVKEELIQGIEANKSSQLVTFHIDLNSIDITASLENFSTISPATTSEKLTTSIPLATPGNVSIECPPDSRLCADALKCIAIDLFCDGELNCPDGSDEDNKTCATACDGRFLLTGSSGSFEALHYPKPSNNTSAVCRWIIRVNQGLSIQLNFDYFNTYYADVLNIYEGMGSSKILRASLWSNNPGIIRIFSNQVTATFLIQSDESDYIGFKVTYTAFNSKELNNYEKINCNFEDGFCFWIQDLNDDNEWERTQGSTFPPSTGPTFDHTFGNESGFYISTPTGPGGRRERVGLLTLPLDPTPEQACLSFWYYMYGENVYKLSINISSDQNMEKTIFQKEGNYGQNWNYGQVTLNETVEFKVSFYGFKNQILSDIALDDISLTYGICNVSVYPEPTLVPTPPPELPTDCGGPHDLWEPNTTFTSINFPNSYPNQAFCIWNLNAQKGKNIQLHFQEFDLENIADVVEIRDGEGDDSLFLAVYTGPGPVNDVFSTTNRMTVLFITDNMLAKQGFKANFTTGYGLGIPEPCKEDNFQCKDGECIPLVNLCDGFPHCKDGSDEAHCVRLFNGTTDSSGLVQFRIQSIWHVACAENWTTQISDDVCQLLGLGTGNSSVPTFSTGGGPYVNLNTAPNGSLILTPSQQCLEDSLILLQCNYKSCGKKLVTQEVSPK
Chain of Enterokinase (P98072 801-1035): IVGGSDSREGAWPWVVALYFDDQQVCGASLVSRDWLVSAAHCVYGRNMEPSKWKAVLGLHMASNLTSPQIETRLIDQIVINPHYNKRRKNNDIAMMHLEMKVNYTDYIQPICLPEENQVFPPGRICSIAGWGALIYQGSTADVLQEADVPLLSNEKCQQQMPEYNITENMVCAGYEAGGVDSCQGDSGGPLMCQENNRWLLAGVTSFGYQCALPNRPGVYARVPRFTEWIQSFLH

The target of this series is recombinant human TNFα (RDI) (UniProt P01375).
Chain of recombinant human TNFα (RDI) (P01375 77-233): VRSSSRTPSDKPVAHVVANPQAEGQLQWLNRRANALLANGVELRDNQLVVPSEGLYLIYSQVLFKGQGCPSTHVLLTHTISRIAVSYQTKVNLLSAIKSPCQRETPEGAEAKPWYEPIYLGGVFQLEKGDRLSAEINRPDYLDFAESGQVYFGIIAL
Regarding ADAM 10, the “inactivation of TNFα bioactivity, L929 cytotoxicity bioassay after overnight digestion” value (shortened to “inactivation of TNFα bioactivity”) is reported as “ADAM 10 (column: Proteases that did not inactivate TNF)”.

As for Enterokinase, the “inactivation of TNFα bioactivity” value is given as “Enterokinase (column: Proteases that did not inactivate TNF)”; the “proteolytic activity towards TNFα and effect in the L929 bioassay” value is “enterokinase has no proteolytic activity towards TNFα and no effect in the L929 bioassay”.

Furin: the “inactivation of TNFα bioactivity” value is recorded as “Furin (column: Proteases that did not inactivate TNF)”.

For Kallikrein5, the “inactivation of TNFα bioactivity” value is given as “Kallikrein5 (column: Proteases that did not inactivate TNF)”.

As for MMP3, the “inactivation of TNFα bioactivity” value is “MMP3 (column: Proteases that did not inactivate TNF)”.

Regarding MT5-MMP, the “inactivation of TNFα bioactivity” value is listed as “MT5-MMP (column: Proteases that did not inactivate TNF)”.

Take Plasmin: the “inactivation of TNFα bioactivity” value is listed as “Plasmin (column: Proteases that did not inactivate TNF)”.

As to Urokinase, the “inactivation of TNFα bioactivity” value is given as “Urokinase (column: Proteases that did not inactivate TNF)”.
